We go through one substance from patent US20250369983A1.

This assay concerns the target full length gp41 HIV protein (Abcam) (human immunodeficiency virus-1 (HIV-1)). Kind of assay: ELISA titration: plates coated with 1 µg/mL antigen, 2F5 in 4-fold dilutions; y axis without label (absorbance). A general note: An ELISA detects its analyte on a solid surface through an enzyme-linked reagent.

Turning to “2F5, broadly neutralizing human monoclonal antibody (Polymun Scientific)”, the EC50 (read off the curve) – broadly, the midpoint of the concentration-response curve – was found to be 0.1 µg/mL.
